For the assay, the target named is polymerized microtubules (UniProt P68369).

On to “GFP-α-TAT1^DC1 (α-TAT1 with Cluster 1 deleted) (from UniProt Q8K341 1-314) (domain or fragment)”, for which the microtubule binding against WT α-TAT1 turned out to be 65%.

The record behind these values is PMC9058472.
